Values joined by “and” are separate entries in the source; they are usually repeats but may differ in a detail not shown here. Equal entries are not always repeated.
What was measured:
[1] = biological target: T1, cynomolgus monkey OX40 on cells (activated cynomolgus monkey CD4+ T cells, OX40+ cells in peripheral blood) (cynomolgus monkey); test: binding to activated cynomolgus monkey CD4+ T cells; activated cynomolgus monkey CD4+ T cells
T1 construct: whole, on cells; also called monkey OX40 receptor on CD4+ T cells

[2] = biological target: T2, human OX40 on cells (activated human CD4+ T cells, stimulated PBMC, lymphocytes in whole blood) (human, UniProt P43489 29-277); test: unstimulated human whole-blood binding assay, lymphocytes
T2 construct: whole, on cells; also called cell-surface OX40; human OX40 receptor on CD4+ T cells
T2 sequence (looked up): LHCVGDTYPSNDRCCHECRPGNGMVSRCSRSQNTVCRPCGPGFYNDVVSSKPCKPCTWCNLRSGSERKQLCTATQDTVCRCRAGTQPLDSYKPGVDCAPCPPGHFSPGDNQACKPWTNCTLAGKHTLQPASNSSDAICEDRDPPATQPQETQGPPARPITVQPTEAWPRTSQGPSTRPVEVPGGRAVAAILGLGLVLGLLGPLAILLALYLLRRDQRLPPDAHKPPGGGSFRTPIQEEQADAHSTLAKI

[3] = biological target: T3, recombinant OX40 extracellular domain from humans (human, UniProt P43489 29-214); test: binding to recombinant OX40 extracellular domain, method not stated; recombinant human OX40 extracellular domain
T3 construct: extracellular domain; also called human OX40; hOX40
T3 sequence (looked up): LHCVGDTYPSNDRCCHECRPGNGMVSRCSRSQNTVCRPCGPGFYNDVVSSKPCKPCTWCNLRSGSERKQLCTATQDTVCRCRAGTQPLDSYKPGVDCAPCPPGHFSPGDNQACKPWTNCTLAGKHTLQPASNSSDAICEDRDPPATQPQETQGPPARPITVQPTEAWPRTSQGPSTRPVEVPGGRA

[4] = biological target: T4, recombinant OX40 extracellular domain from cynomolgus monkeys (cynomolgus monkey); test: binding to recombinant OX40 extracellular domain, method not stated
T4 construct: extracellular domain; also called cynomolgus monkey OX40

[5] = biological target: T2, human OX40 on cells (activated human …); test: binding to stimulated human PBMC; stimulated human PBMC; upper end of range
[6] = biological target: T1, cynomolgus monkey OX40 on cells …; test: cell-based or functional assay
[7] = biological target: T2, human OX40 on cells (activated human …); test: cell-based or functional assay
[8] = biological target: T2, human OX40 on cells (activated human …); test: binding to stimulated human PBMC; stimulated human PBMC; lower end of range
[9] = biological target: T2, human OX40 on cells (activated human …); test: binding to activated human CD4+ T cells; activated human CD4+ T cells

B1: ANTIBODY 106-222 (antibody, human IgG1, kappa, V domains shown)
VH: QVQLVQSGSELKKPGASVKVSCKASGYTFTDYSMHWVRQAPGQGLKWMGWINTETGEPTYADDFKGRFVFSLDTSVSTAYLQISSLKAEDTAVYYCANPYYDYVSYYAMDYWGQGTTVTVSS
VL: DIQMTQSPSSLSASVGDRVTITCKASQDVSTAVAWYQQKPGKAPKLLIYSASYLYTGVPSRFSGSGSGTDFTFTISSLQPEDIATYYCQQHYSTPRTFGQGTKLEIKR
notes: also called humanized wild-type IgG1 anti-OX40 agonistic mAb
EC50 [1]: 0.35 µg/mL | EC50 [2]: 1.45 µg/mL | Kd [3]: 4.9 nM | Kd [4]: 408 nM | EC50 [5]: ≤ 0.3 µg/mL | proliferation of immobilized anti-CD3 activated cynomolgus monkey CD4+ T cells, mean EC50 [6]: 0.72 µg/mL and 4.8 nM | anti-CD3 induced proliferation of activated human CD4+ T cells, mean EC50 [7]: 0.19 µg/mL and 1.3 nM | EC50 [8]: ≥ 0.1 µg/mL | EC50 [9]: 0.3 µg/mL

Reference: patent publication US20190023791A1 (GlaxoSmithKline, published 2019)
